Experimental data as given in IntAct's records for PubMed 20696397.

B1: Chromobox protein homolog 7 (Homo sapiens), O95931 (parent)
chain: MELSAIGEQVFAVESIRKKRVRKGKVEYLVKWKGWPPKYSTWEPEEHILDPRLVMAYEEKEERDRASGYRKRGPKPKRLLLQRLYSMDLRSSHKAKGKEKLCFSLTCPLGSGSPEGVVKAGAPELVDKGPLVPTLPFPLRKPRKAHKYLRLSRKKFPPRGPNLESHSHRRELFLQEPPAPDVLQAAGEWEPAAQPPEEEADADLAEGPPPWTPALPSSEVTVTDITANSITVTFREAQAAEGFFRDRSGKF
B2: E3 ubiquitin-protein ligase RING2 (Homo sapiens), Q99496 (parent)
chain: MSQAVQTNGTQPLSKTWELSLYELQRTPQEAITDGLEIVVSPRSLHSELMCPICLDMLKNTMTTKECLHRFCADCIITALRSGNKECPTCRKKLVSKRSLRPDPNFDALISKIYPSRDEYEAHQERVLARINKHNNQQALSHSIEEGLKIQAMNRLQRGKKQQIENGSGAEDNGDSSHCSNASTHSNQEAGPSNKRTKTSDDSGLELDNNNAAMAIDPVMDGASEIELVFRPHPTLMEKDDSAQTRYIKTSGNATVDHLSKYLAVRLALEELRSKGESNQMNLDTASEKQYTIYIATASGQFTVLNGSFSLELVSEKYWKVNKPMELYYAPTKEHK
partner: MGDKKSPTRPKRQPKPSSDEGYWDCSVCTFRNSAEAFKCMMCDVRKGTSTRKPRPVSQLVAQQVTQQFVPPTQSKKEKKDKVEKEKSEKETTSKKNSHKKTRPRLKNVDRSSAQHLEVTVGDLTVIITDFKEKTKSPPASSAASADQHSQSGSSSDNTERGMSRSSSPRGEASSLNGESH

Variants of: B1
Details: with ring2_human RNF2, Q99496

| Variant | effect of a mutation on the interaction |
| --- | --- |
| F234D | disrupting interaction |

Variants of: B2
Details: with YAF2, Q8IY57-1

| Variant | effect of a mutation on the interaction |
| --- | --- |
| H258A | disrupting interaction |
| Y262A | disrupting interaction |
